These results are taken from article PMC7438494, “Bedaquiline inhibits the yeast and human mitochondrial ATP synthases” (Communications Biology, 2020).

Series [1] concerns the molecule itself. Description: cryo-EM structure; purified yeast F1Fo reconstituted in nanodiscs (POPC and cardiolipin, 12% by weight), incubated with BDQ (30 uM on ice 30 min, or 5 uM at room temperature 10 min); reconstruction focused on Fo at 4.2 A, whole F1Fo at 3.9 A.
Series [2] addresses T1, subunit-a of the yeast mitochondrial F1Fo ATP synthase (S. cerevisiae, UniProt P00854 11-259).
T1 construct: ATP synthase subunit a (Fo sector), S. cerevisiae mitochondrial; The His6 tag of strain USY006 is on ATP2 (beta subunit), not on this chain; also called a-subunit
T1 sequence (looked up): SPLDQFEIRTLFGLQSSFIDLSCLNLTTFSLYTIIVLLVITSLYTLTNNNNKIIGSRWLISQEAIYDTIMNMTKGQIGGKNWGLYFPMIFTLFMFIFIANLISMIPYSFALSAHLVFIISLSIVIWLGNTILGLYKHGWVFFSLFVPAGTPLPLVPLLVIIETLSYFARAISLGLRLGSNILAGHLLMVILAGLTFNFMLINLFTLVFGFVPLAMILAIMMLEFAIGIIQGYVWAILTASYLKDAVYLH
Described as above. Conditions: both partners purified.

B1: subunit-c of the yeast mitochondrial F1Fo ATP synthase (c10-ring) (natural protein, S. cerevisiae, UniProt P61829 1-76, looked up)
chain: MQLVLAAKYIGAGISTIGLLGAGIGIAIVFAALINGVSRNPSIKDTVFPMAILGFALSEATGLFCLMVSFLLLFGV
notes: ATP synthase subunit c (subunit 9, Fo sector), S. cerevisiae mitochondrial; as modelled in PDB 6WTD (chains Q and R are two of the ten copies; initial model PDB 6CP7); also called c-subunit; c-ring; copies: 10
With B1, the stoichiometry N (usually a count of units in the complex or per binding partner) in series [1] amounted to 10. Further, the binding result in series [2] was “binds”.
